# Test: yeast display, Sf9 membrane polyspecificity reagent, FACS + sequencing; frameworks hold sequencing errors
# Procedure, shortened: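 Galactose-induced (36–48 hours) yeast carrying a synthetic nanobody display library were exposed to 10% biotinylated, detergent-solubilized Sf9 membrane reagent at 4 °C for 1 hour. FACS followed streptavidin microbead enrichment, using low and high (top ~1%) gates for expression (anti-HA) and reagent binding (streptavidin). Colony PCR, MiSeq 2 × 250 sequencing and CDR-length filtering followed. Labels for polyreactivity reflect the gate of origin.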
row,Sequence,polyreactivity (PSR sort gate)
1,QVQLVESGGGLVQAGGSLRLSCAASGRTFNFYSMGCYRQAPRKERELVAAISHGDSTYYADSVKGRFTISRDNAKNTVYLQMNSLNPEDTAVYYCAASQKYYLRKYEYWGQGTQVTVSS,low polyreactivity
2,QVQLVESGGGLVQAGGSLRLSCAASGRTFNGYAMGWYRQAPGKERELVARITYRGGGTYYADSVKGRFTISRDNAKNTVYLQMNSLKPEDTAVYYCNARGVQYRYYYWGQGTQVTVSS,high polyreactivity
3,QVQLVESGGGLVQAGGSLRLSCAASGRTFNGYAMGWYRQAPGKERELVASISWSGGRTYYADSVKGRFTISRDNAKNTVYFQMNSLKPEDTAVYYCAATFVNVVGYDYWGQGTQVTVST,high polyreactivity
4,QVQLVESGGGLVQAGGSLRLSCAASGRTFNKNSMGWYRQAPGKERELVAAITTGGGTYYADSVKGRFTISRDNAKNTVYLQMNSLKPEDTAVYYCAARRRRWSGYWGQGTQVTVSS,high polyreactivity
5,QVQLVESGGGLVQAGGSLRLSCAASGRTFNKYAMGWYTQAPGKERELVAAISTRGGSTYYADSVKGRFTISRDNAKNTVDLQMNSLKPEDTAVYYCAARLTTVGQGFDYWGQGTQVTVSS,high polyreactivity
6,QVQLVESGGGLVQAGGSLRLSCAASGRTFNLYAMGWYRQAPGKEREFVAAISYSGDSTYYADSVKGRFTISRDNAKNTVYLQMNSLKPEDTAVYYCNADRLQVTRTYDYWGQGTQVTVSS,low polyreactivity
7,QVQLVESGGGLVQAGGSLRLSCAASGRTFNNNAMGWYRQAPGKERELVAAITSGGSTNYADSVKGRFTISRDNAKNTVYLQMNSLKPEDTAVYYCNAGYYSRRYYFSGRLDYWGQGTQVTVSS,low polyreactivity
8,QVQLVESGGGLVQAGGSLRLSCAASGRTFNPYVMGWYRQAPGKERELVAVITSSGDSTYYADSVKGRFTISRDNAKNTVYLQMNSLKPEDTAVYYCNADYLYYDYDYWGQGTQVTVSS,high polyreactivity
9,QVQLVESGGGLVQAGGSLRLSCAASGRTFNRNAMGWYRQAPAKERELVAAITSSGGRTYYADSVKGRFTISRDNAKNTVYLQMNSLKPEDTAVYYCNVGPYYPVYLGYLLWYDYWGQGTQVTVSS,high polyreactivity
10,QVQLVESGGGLVQAGGSLRLSCAASGRTFNRNAMGWYRQAPGKERELVAAISRGGGGTFYADSVKGRFTISRDNAKNTVYLQMNSLKPEDTAVYYCAAELYYWTYVRFDYWGQGTQVTVSS,low polyreactivity
11,QVQLVESGGGLVQAGGSLRLSCAASGRTFNRYAMGWYRQAPGKERELVAAINWSGGSTYYADSVKGRFTISRDNAKNTVYLQMNSLKPEDTAVYYCNAGLGKFPVKGGRRYRLDYWGQGTQVTVSS,low polyreactivity
12,QVQLVESGGGLVQAGGSLRLSCAASGRTFNRYAMGWYRQAPGKERELVAAISGGGSSTSYADSVKGRFTISRDNAKNTVYLQMNSLKPEDTAVYYCAAKYGALRYYNMYYWGQGTQVTVSS,low polyreactivity
13,QVQLVESGGGLVQAGGSLRLSCAASGRTFNRYVMGWYRQAPGNERELVAALTSSGRTNYADSVKGRFTLSRDNAKNTVYLQMNSLKPEDTAVYYCAKGLYRRYYRVWWLRGDYWGQGTQVTVSS,high polyreactivity
14,QVQLVESGGGLVQAGGSLRLSCAASGRTFNSYAMGWYRQAPGKERELVAAISRRGGSTYYADSVKGRFTISRDNAKNTVYLQMNSLKPEDTAVYYCASTIVQYISRMDYWGQGTQVTVSS,high polyreactivity
15,QVQLVESGGGLVQAGGSLRLSCAASGRTFNTNAMGWYRQAPGKERELVAAISRRSGSTYYADSVKGRFTISRDNAKNTVYLQMNSLKPEDTGVYYCARTAVRKYPYEYWGQGPQVTVSS,high polyreactivity
16,QVQLVESGGGLVQAGGSLRLSCAASGRTFNTYAMGWYRQAPGKERELVAAISKRGGSTYYADSVKGRFTISRDNAKNTVYLQMNSLKPEDTAVYYCNAKGNVRMYWGQGTQVTVSS,high polyreactivity
17,QVQLVESGGGLVQAGGSLRLSCAASGRTFNVNAMGWYRQAPGIERELVATISSAASTNYADSVKGRFTISRDNAKNTVYLQMNSLKPEDTAVYYCNAAFYKEYYYWGQGTQVTVSS,low polyreactivity
18,QVQLVESGGGLVQAGGSLRLSCAASGRTFNYYAMAWYRQAPGKERELVAAISYSGGSTYYADSVKGRFTISRDNAKNTVYLQMNSLKPEDTAVYYCAVVIKWRSSYVYSYYYWGQGTQVTVSS,high polyreactivity
19,QVQLVESGGGLVQAGGSLRLSCAASGRTFNYYAMGWYRQAPGKERELVASIRYSTGSTYYADSVKGRFTISRDNAKNTVYLQMNSLKPEDTAVYYCAARRYARASRYDYWGQGTQVTVSS,high polyreactivity
20,QVQLVESGGGLVQAGGSLRLSCAASGRTFPAYAMGWYRQAPGKERELVAAISYSGGRTRYADSVKGRFTISRDNAKNTVYLQMNSLKPEDTAVYYCNRVIPTHSLRDYYWGQGSQVTVSS,high polyreactivity
21,QVQLVESGGGLVQAGGSLRLSCAASGRTFPAYTMGWYRPAPGKERELVAAIRWSGGRTRYADSVKGRFTISRDNAKNTVYLQMNSLKPEDTAVYYCAAYRLSKPFYKYDYWGQGTQVTVSS,high polyreactivity
22,QVQLVESGGGLVQAGGSLRLSCAASGRTFPAYTMGWYRQAPGKERELVAAINWSGGSTYYADSVKGRFTISRDNAKNTVYLQMNSLKPEDTAVYYCARTSRYYGFRSYGTLDYWGLGTQVTVSS,high polyreactivity

row,Sequence,polyreactivity (PSR sort gate)
1,QVQLVESGGGLVQAGGSLRLSCAASGRTFPEYGMGWYRQAPGKEREFVAAISTRGGSTYYANSVKGRFTISRDNAKNTVYLQMNSLKPEDTAVYYCAKVYDRSGGDYWGQGTQVTVSS,low polyreactivity
2,QVQLVESGGGLVQAGGSLRLSCAASGRTFPFNAMGWYRQPPGKERELVAVINSGGSTYYADSVKGRFTISRDNAKNTVYLQMNSLKPEDTAVYYCYVKRYLWFTDLLYDYWGQGTQVTVSS,high polyreactivity
3,QVQLVESGGGLVQAGGSLRLSCAASGRTFPFYAMGWYRQAPGKERELVAAINSGGITNYADSVKGRFTISRDNAKYTVYLQMNSLKPEDTAVYYCAAKTAFYRERGYWGQGTQVTVSS,low polyreactivity
4,QVQLVESGGGLVQAGGSLRLSCAASGRTFPFYAMGWYRQAPGKERELVADITSSGGSTYYADSVKGRFTISRDNAKNTVYLQINSLKPEDTAVYYCNKRPWTRFDSGQGTQVTVSS,low polyreactivity
5,QVQLVESGGGLVQAGGSLRLSCAASGRTFPFYAMGWYRQAPGKERELVAVITWRGSNTYADSVKGRFTISRDNAKNTVYLQMNSLKPEDTAVYYCSATGGRYIDGYYYWGQGTQVTVSS,high polyreactivity
6,QVQLVESGGGLVQAGGSLRLSCAASGRTFPGNAMGWYRQAPGKERELVAAISRRGGTTYYADSVKGRFTITRDNAKNTVYLQMNSLKPEDTAVYYCAKSYRDYGISDFDYWGQGTQVTVSS,high polyreactivity
7,QVQLVESGGGLVQAGGSLRLSCAASGRTFPGNSMGWYRQAPGKERELVAAISWSGTRTYYADSVKGRFTISRDNAKNTVYLQMNSLKPEDTAVYYCNVVVKGAWDYYPYDYCGQGTQVTVSS,high polyreactivity
8,QVQLVESGGGLVQAGGSLRLSCAASGRTFPGYAMGWYRQAPGKERELVAAISNSGGRTYYADSVKGRFTISRDNAKNTVYLQMNSLKPEDTAVYYCNALGRVRYSPRYGYDYWGQGTQVTVSS,high polyreactivity
9,QVQLVESGGGLVQAGGSLRLSCAASGRTFPGYAMGWYRQAPGKERELVAAITSSGSSTYYADSVKGRFTISRDNAKNTVYLQMNSLKPEDTAVYYCAAKTSGDYDYWGQGSQVTVSS,low polyreactivity
10,QVQLVESGGGLVQAGGSLRLSCAASGRTFPGYAMGWYRQAPGKERELVAGISYRGGSTYYADSVKGRFTISRDNAKNTVYLQMNSLKPEDTAVYYCARDYSRHKGDYWGQGTQVTVSS,low polyreactivity
11,QVQLVESGGGLVQAGGSLRLSCAASGRTFPGYAMGWYRQAPGKERELVAGISYRGGSTYYADSVKGRFTISRDNAKNTVYLQMNSLKPEDTAVYYCNATYGGPYYIQYDYWGQGTQVTVSS,low polyreactivity
12,QVQLVESGGGLVQAGGSLRLSCAASGRTFPGYAMGWYRQAPGKERELVATITFSDGSTYYADSVKGRFTISRDNAKNSVYLQMNSLKPEDTAVYYCNARRSYFLRYGVNYWGQGTQVTVSS,low polyreactivity
13,QVQLVESGGGLVQAGGSLRLSCAASGRTFPGYAMGWYRQATGKERELVAGISYRGGSTYYADSVKGRITISRDTAKNTVYFQINSLKPVDTAVYYCARDYSRHKGDYWGQGTQVTVSS,low polyreactivity
14,QVQLVESGGGLVQAGGSLRLSCAASGRTFPHYAMGWYRQAPGKVRELVAAISSRGGSTYYADSVKGRFTISRDNVKNTVYLQMNSLKPEDTAVYYCAATVGLYRSREYGYWGQGTQVTVSS,low polyreactivity
15,QVQLVESGGGLVQAGGSLRLSCAASGRTFPNYAMGWYRQAPGKERELVAAITRGVRTHYADSVKGRFTISRDNAKNTVYLQLNSLKQEDTAVYYCARSYRSDGSRFGYWGQGTQVTVSS,low polyreactivity
16,QVQLVESGGGLVQAGGSLRLSCAASGRTFPPYAMGWYRQAPRKESELVAAISGSGASTYYADSVKGRFTISRDNAKNTVYLQMNSLKPEDTAVYYCAARRGSGKFGKYRGVDYWGQGTQVTVSS,high polyreactivity
17,QVQLVESGGGLVQAGGSLRLSCAASGRTFPQNAMGWYRQAPGKERELVAAISRSGGRTYYADSVKGRFTISRDNAKNTVYLQMNSLKPEDTAVYYCNTDPRYPRYDYSGQGTQVTVSS,high polyreactivity
18,QVQLVESGGGLVQAGGSLRLSCAASGRTFPRYAMGWYRQARGKEREMVAAISGTGGSTYYADSVKGRFTISRDNAKNTFYLQMNSLKPEDTAVYYCAAAFRDGFTRRYGYWGQGTQVTVSS,high polyreactivity
19,QVQLVESGGGLVQAGGSLRLSCAASGRTFPRYGMGWYRQAPVKERELVATIRTGGRTNYADSVKGRFTISRDNAKNTVYVLMNSQKPEDTAVYYCATDSSKHPYSPTLLKFDYWGQGTQVTVSS,low polyreactivity
20,QVQLVESGGGLVQAGGSLRLSCAASGRTFPRYTMGRYRQAPRKERELVAASATGGSTNYADSVKGRFTISRDNAKNTVYLHMNSLKPEDTAVYYCAARPYSNRYVLGVYYWGKGTQVTVSS,high polyreactivity
21,QVQLVESGGGLVQAGGSLRLSCAASGRTFPRYVMGWYRQAPGKERDLVAAIRRSGGSTYYADSVKGRFTISRDNAKNTVYLQMNSLKPDDTAVYYCNRVVYTYISTGSRHGRYYYWGQGTQVTVSS,high polyreactivity
